Assay results: paper PMC9482650, “Quantitative fragmentomics allow affinity mapping of interactomes” (Nature Communications, 2022)

How the values were obtained:
Assay in all cases: holdup assay
Set-up in all cases: key: below the threshold = too weak to quantify, mostly under pKd 3.1 to 4
TJP2_1, Q9UDY2 = biological target: TJP2_1, Q9UDY2
LIMK2, P53671 = biological target: LIMK2, P53671
NHERF3_1, Q5T2W1 = biological target: T1, NHERF3_1, Q5T2W1
T1 sequence (Q5T2W1 4-100, limits assumed, looked up): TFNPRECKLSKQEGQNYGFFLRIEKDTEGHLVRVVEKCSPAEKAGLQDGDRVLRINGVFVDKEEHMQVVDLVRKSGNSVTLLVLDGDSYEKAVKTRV

GRIP1_5, Q9Y3R0 = biological target: T2, GRIP1_5, Q9Y3R0
T2 sequence (Q9Y3R0 568-668, limits assumed, looked up): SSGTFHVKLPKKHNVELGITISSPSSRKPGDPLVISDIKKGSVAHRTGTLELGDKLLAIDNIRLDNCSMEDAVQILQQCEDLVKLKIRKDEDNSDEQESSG

MAGI2_3, Q86UL8 = biological target: MAGI2_3, Q86UL8
MAGI2_3, Q86UL8, sequence (Q86UL8 600-682): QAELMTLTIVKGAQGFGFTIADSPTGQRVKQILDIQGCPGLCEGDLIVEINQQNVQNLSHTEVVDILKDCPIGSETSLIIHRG

MPP2, Q14168 = biological target: T3, MPP2, Q14168
T3 sequence (Q14168 180-250, limits assumed, looked up): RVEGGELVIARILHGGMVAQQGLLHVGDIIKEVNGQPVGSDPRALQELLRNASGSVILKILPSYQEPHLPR

PTPN3, P26045 = biological target: PTPN3, P26045
PTPN3, P26045, sequence (P26045 505-587): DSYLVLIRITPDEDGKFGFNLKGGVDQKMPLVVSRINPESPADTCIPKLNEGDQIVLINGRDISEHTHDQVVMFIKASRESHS

PTPN13_1, Q12923 = biological target: T4, PTPN13_1, Q12923
T4 sequence (Q12923 1088-1188, limits assumed, looked up): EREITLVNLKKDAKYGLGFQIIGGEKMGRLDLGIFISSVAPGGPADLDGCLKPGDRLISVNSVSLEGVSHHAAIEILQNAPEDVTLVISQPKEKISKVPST

LNX2_2, Q8N448 = biological target: T5, LNX2_2, Q8N448
T5 sequence (Q8N448 334-432, limits assumed, looked up): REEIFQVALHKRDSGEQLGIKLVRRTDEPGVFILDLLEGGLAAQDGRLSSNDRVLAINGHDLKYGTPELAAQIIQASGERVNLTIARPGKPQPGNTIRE

DLG3_3, Q92796 = biological target: T6, DLG3_3, Q92796
T6 sequence (Q92796 374-475, limits assumed, looked up): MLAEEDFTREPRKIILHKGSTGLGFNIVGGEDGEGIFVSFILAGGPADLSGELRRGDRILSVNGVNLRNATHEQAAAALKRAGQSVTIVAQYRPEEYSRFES

MAGI1_2, Q96QZ7 = biological target: MAGI1_2, Q96QZ7
MAGI1_2, Q96QZ7, sequence (Q96QZ7 456-580): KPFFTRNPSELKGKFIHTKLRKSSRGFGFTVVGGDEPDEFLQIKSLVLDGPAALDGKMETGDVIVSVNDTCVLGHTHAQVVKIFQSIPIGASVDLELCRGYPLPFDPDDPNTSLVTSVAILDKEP

SCRIB_3, Q14160 = biological target: SCRIB_3, Q14160
SCRIB_3, Q14160, sequence (Q14160 999-1103): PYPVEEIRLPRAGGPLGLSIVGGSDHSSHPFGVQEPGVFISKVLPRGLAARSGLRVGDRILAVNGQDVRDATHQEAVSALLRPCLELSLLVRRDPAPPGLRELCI

GRIP2_6, Q9C0E4 = biological target: GRIP2_6, Q9C0E4
GRIP2_6, Q9C0E4, sequence (Q9C0E4 648-740): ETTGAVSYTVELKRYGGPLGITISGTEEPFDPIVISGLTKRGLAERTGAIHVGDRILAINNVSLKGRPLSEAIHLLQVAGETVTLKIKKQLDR

SCRIB_2, Q14160 = biological target: SCRIB_2, Q14160
SCRIB_2, Q14160, sequence (Q14160 857-960): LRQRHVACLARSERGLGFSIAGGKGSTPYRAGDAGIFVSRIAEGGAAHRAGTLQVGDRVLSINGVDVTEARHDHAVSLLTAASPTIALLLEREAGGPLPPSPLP

LNX2_3, Q8N448 = biological target: T7, LNX2_3, Q8N448
T7 sequence (Q8N448 463-564, limits assumed, looked up): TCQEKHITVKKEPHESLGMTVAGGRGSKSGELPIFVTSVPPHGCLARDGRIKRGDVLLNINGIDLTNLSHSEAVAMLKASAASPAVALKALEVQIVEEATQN

DVL3, Q92997 = biological target: T8, DVL3, Q92997
T8 sequence (Q92997 244-331, limits assumed, looked up): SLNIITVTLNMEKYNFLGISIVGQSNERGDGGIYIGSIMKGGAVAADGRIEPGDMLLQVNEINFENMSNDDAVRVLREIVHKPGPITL

LIN7C, Q9NUP9 = biological target: T9, LIN7C, Q9NUP9
T9 sequence (Q9NUP9 88-185, limits assumed, looked up): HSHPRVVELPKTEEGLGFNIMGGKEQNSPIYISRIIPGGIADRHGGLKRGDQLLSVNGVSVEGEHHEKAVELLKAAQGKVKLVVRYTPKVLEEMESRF

IL16_3, Q14005 = biological target: IL16_3, Q14005
IL16_3, Q14005, sequence (Q14005 1107-1207): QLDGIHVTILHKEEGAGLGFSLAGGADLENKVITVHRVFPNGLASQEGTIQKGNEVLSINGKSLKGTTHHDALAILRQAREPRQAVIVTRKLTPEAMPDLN

GRIP1_7, Q9Y3R0 = biological target: T10, GRIP1_7, Q9Y3R0
T10 sequence (Q9Y3R0 999-1096, limits assumed, looked up): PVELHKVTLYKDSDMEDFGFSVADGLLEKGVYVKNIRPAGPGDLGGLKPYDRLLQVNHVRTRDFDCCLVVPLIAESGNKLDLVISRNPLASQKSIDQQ

Inadl_4, Q8NI35 = biological target: Inadl_4, Q8NI35
Inadl_4, Q8NI35, sequence (Q8NI35 547-651): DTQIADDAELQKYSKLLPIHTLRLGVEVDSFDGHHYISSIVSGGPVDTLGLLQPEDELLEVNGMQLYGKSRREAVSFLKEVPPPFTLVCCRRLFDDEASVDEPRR

FRMPD3, Q5JV73 = biological target: FRMPD3, Q5JV73
FRMPD3, Q5JV73, sequence (Q5JV73 12-100): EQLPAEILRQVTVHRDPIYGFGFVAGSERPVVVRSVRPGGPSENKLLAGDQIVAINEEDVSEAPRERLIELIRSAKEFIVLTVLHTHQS

DLG1_1, Q12959 = biological target: DLG1_1, Q12959
DFNB31_2, Q9P202 = biological target: T11, DFNB31_2, Q9P202
T11 sequence (Q9P202 274-371, limits assumed, looked up): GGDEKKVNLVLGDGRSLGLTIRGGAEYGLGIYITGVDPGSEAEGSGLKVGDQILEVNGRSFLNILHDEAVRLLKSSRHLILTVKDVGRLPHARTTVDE

NHERF4_1, Q86UT5-2 = biological target: NHERF4_1, Q86UT5-2
NHERF4_1, Q86UT5-2, sequence (Q86UT5 other isoform, or with tags, fused parts or gaps): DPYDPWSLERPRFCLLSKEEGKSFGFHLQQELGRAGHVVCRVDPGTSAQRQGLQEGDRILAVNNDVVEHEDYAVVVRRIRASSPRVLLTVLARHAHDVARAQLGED

DFNB31_3, Q9P202 = biological target: T12, DFNB31_3, Q9P202
T12 sequence (Q9P202 811-907, limits assumed, looked up): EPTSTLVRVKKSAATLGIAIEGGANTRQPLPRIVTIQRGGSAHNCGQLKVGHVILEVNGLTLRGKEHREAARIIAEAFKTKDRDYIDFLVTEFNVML

LNX1_1, Q8TBB1 = biological target: LNX1_1, Q8TBB1
LNX1_1, Q8TBB1, sequence (Q8TBB1 261-371): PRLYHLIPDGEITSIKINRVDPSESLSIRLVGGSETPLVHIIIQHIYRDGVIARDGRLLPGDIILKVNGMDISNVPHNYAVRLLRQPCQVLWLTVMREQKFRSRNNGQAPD

[1] = plain residues with an end cap or a label only (N-terminal biotin on a linker: ado-ado)
[2] = plain residues with an end cap or a label only (N-terminal biotin on a linker: ahx)
[3] = plain residues with an end cap or a label only (N-terminal biotin on a linker: (peg)3)

LIMK2, P53671, sequence (P53671 143-248): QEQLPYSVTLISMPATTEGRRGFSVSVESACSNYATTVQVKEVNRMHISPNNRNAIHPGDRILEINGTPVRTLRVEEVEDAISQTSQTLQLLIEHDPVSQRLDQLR
TJP2_1, Q9UDY2, sequence (Q9UDY2 24-128): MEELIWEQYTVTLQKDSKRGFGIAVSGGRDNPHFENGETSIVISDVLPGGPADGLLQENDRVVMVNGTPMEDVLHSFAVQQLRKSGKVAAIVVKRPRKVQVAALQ

**Q.** With NISYRRESAI [KCNJ4, P48050] as the binder, how does the pKd (TJP2_1, Q9UDY2; [1]) read?
**A.** below the threshold

**Q.** What about the pKd (LIMK2, P53671; [1]) of the same binder?
**A.** below the threshold

**Q.** What about the pKd (NHERF3_1, Q5T2W1; [1]) of the same binder?
**A.** 3.75

**Q.** And the pKd (GRIP1_5, Q9Y3R0; [1])?
**A.** below the threshold

**Q.** And the pKd (MAGI2_3, Q86UL8; [1])?
**A.** below the threshold

**Q.** What about the pKd (MPP2, Q14168; [1]) of the same binder?
**A.** below the threshold

**Q.** What about the pKd (PTPN3, P26045; [1]) of the same binder?
**A.** 4.6

**Q.** And the pKd (PTPN13_1, Q12923; [1])?
**A.** below the threshold

**Q.** What about the pKd (LNX2_2, Q8N448; [1]) of the same binder?
**A.** below the threshold

**Q.** And the pKd (DLG3_3, Q92796; [1])?
**A.** 3.98

**Q.** And the pKd (MAGI1_2, Q96QZ7; [1])?
**A.** 3.89

**Q.** What about the pKd (SCRIB_3, Q14160; [1]) of the same binder?
**A.** 4.91

**Q.** And the pKd (GRIP2_6, Q9C0E4; [1])?
**A.** below the threshold

**Q.** What about the pKd (SCRIB_2, Q14160; [1]) of the same binder?
**A.** 3.69

**Q.** And the pKd (LNX2_3, Q8N448; [1])?
**A.** below the threshold

**Q.** What about the pKd (DVL3, Q92997; [1]) of the same binder?
**A.** below the threshold

**Q.** And the pKd (LIN7C, Q9NUP9; [1])?
**A.** below the threshold

**Q.** And the pKd (IL16_3, Q14005; [1])?
**A.** below the threshold

**Q.** And the pKd (GRIP1_7, Q9Y3R0; [1])?
**A.** below the threshold

**Q.** And the pKd (Inadl_4, Q8NI35; [1])?
**A.** below the threshold

**Q.** And the pKd (FRMPD3, Q5JV73; [1])?
**A.** below the threshold

**Q.** And the pKd (DLG1_1, Q12959; [1])?
**A.** 3.54

**Q.** And the pKd (DFNB31_2, Q9P202; [1])?
**A.** below the threshold

**Q.** What about the pKd (NHERF4_1, Q86UT5-2; [1]) of the same binder?
**A.** 3.48

**Q.** What about the pKd (DFNB31_3, Q9P202; [1]) of the same binder?
**A.** below the threshold

**Q.** What about the pKd (LNX1_1, Q8TBB1; [1]) of the same binder?
**A.** below the threshold

**Q.** Which pKd (TJP2_1, Q9UDY2; [2]) does the source give for QDEKVKESYV [ABCA1, O95477] here?
**A.** 4.36

**Q.** And the pKd (LIMK2, P53671; [2])?
**A.** below the threshold

**Q.** What about the pKd (NHERF3_1, Q5T2W1; [2]) of the same binder?
**A.** 5.12

**Q.** What about the pKd (GRIP1_5, Q9Y3R0; [2]) of the same binder?
**A.** below the threshold

**Q.** And the pKd (MAGI2_3, Q86UL8; [2])?
**A.** 4.85

**Q.** And the pKd (MPP2, Q14168; [2])?
**A.** below the threshold

**Q.** And the pKd (PTPN3, P26045; [2])?
**A.** 5.04

**Q.** And the pKd (PTPN13_1, Q12923; [2])?
**A.** below the threshold

**Q.** And the pKd (LNX2_2, Q8N448; [2])?
**A.** 3.64

**Q.** And the pKd (DLG3_3, Q92796; [2])?
**A.** 3.97

**Q.** And the pKd (MAGI1_2, Q96QZ7; [2])?
**A.** 4.03

**Q.** What about the pKd (SCRIB_3, Q14160; [2]) of the same binder?
**A.** 4.45

**Q.** What about the pKd (GRIP2_6, Q9C0E4; [2]) of the same binder?
**A.** below the threshold

**Q.** And the pKd (SCRIB_2, Q14160; [2])?
**A.** 4.61

**Q.** And the pKd (LNX2_3, Q8N448; [2])?
**A.** 3.63

**Q.** And the pKd (DVL3, Q92997; [2])?
**A.** 3.7

**Q.** What about the pKd (LIN7C, Q9NUP9; [2]) of the same binder?
**A.** 4.59

**Q.** What about the pKd (IL16_3, Q14005; [2]) of the same binder?
**A.** below the threshold

**Q.** And the pKd (GRIP1_7, Q9Y3R0; [2])?
**A.** 3.49

**Q.** What about the pKd (Inadl_4, Q8NI35; [2]) of the same binder?
**A.** below the threshold

**Q.** What about the pKd (FRMPD3, Q5JV73; [2]) of the same binder?
**A.** below the threshold

**Q.** And the pKd (DLG1_1, Q12959; [2])?
**A.** 4.6

**Q.** And the pKd (DFNB31_2, Q9P202; [2])?
**A.** 4.79

**Q.** What about the pKd (NHERF4_1, Q86UT5-2; [2]) of the same binder?
**A.** 3.48

**Q.** What about the pKd (DFNB31_3, Q9P202; [2]) of the same binder?
**A.** below the threshold

**Q.** What about the pKd (LNX1_1, Q8TBB1; [2]) of the same binder?
**A.** 4.38

**Q.** For RYEDTTLVEDTVL [WNV-NS5, Q9Q6P4], which pKd (TJP2_1, Q9UDY2; [3]) is on record?
**A.** below the threshold

**Q.** What about the pKd (LIMK2, P53671; [3]) of the same binder?
**A.** below the threshold

**Q.** And the pKd (NHERF3_1, Q5T2W1; [3])?
**A.** 4.43

**Q.** What about the pKd (GRIP1_5, Q9Y3R0; [3]) of the same binder?
**A.** below the threshold

**Q.** And the pKd (MAGI2_3, Q86UL8; [3])?
**A.** below the threshold

**Q.** What about the pKd (MPP2, Q14168; [3]) of the same binder?
**A.** below the threshold

**Q.** And the pKd (PTPN3, P26045; [3])?
**A.** 4.37

**Q.** What about the pKd (PTPN13_1, Q12923; [3]) of the same binder?
**A.** below the threshold

**Q.** And the pKd (LNX2_2, Q8N448; [3])?
**A.** below the threshold

**Q.** And the pKd (DLG3_3, Q92796; [3])?
**A.** below the threshold

**Q.** What about the pKd (MAGI1_2, Q96QZ7; [3]) of the same binder?
**A.** below the threshold

**Q.** What about the pKd (SCRIB_3, Q14160; [3]) of the same binder?
**A.** 3.97

**Q.** What about the pKd (GRIP2_6, Q9C0E4; [3]) of the same binder?
**A.** below the threshold

**Q.** What about the pKd (SCRIB_2, Q14160; [3]) of the same binder?
**A.** below the threshold

**Q.** What about the pKd (LNX2_3, Q8N448; [3]) of the same binder?
**A.** below the threshold

**Q.** What about the pKd (DVL3, Q92997; [3]) of the same binder?
**A.** below the threshold

**Q.** What about the pKd (LIN7C, Q9NUP9; [3]) of the same binder?
**A.** below the threshold

**Q.** What about the pKd (IL16_3, Q14005; [3]) of the same binder?
**A.** below the threshold

**Q.** And the pKd (GRIP1_7, Q9Y3R0; [3])?
**A.** below the threshold

**Q.** And the pKd (Inadl_4, Q8NI35; [3])?
**A.** below the threshold

**Q.** And the pKd (FRMPD3, Q5JV73; [3])?
**A.** 3.88

**Q.** What about the pKd (DLG1_1, Q12959; [3]) of the same binder?
**A.** 3.58

**Q.** What about the pKd (DFNB31_2, Q9P202; [3]) of the same binder?
**A.** below the threshold

**Q.** And the pKd (NHERF4_1, Q86UT5-2; [3])?
**A.** 4.17

**Q.** What about the pKd (DFNB31_3, Q9P202; [3]) of the same binder?
**A.** below the threshold

**Q.** What about the pKd (LNX1_1, Q8TBB1; [3]) of the same binder?
**A.** 3.74
